Experimental data as given in paper PMC4586260 (Biochemistry, 2008).
Several values for one entry are separate records, joined by “and”; a condition that tells them apart may be missing. Identical values can stand only once.

B1: WRN C-terminal fragment WRN(1072-1432) (domain or fragment, human, UniProt Q14191 1072-1432, looked up)
chain: KKLLLPSSKTVSSGTKEHCYNQVPVELSTEKKSNLEKLYSYKPCDKISSGSNISKKSIMVQSPEKAYSSSQPVISAQEQETQIVLYGKLVEARQKHANKMDVPPAILATNKILVDMAKMRPTTVENVKRIDGVSEGKAAMLAPLLEVIKHFCQTNSVQTDLFSSTKPQEEQKTSLVAKNKICTLSQSMAITYSLFQEKKMPLKSIAESRILPLMTIGMHLSQAVKAGCPLDLERAGLTPEVQKIIADVIRNPPVNSDMSKISLIRMLVPENIDTYLIHMAIEILKHGPDSGLQPSCDVNKRRCFPGSEEICSSSKRSKEEVGINTETSSAERKRRLPVWFAKGSDTSKKLMDKTKRGGLFS
B2: WRN fragment WRN(1151-1432) (domain or fragment, human, UniProt Q14191 1151-1432, looked up)
chain: ETQIVLYGKLVEARQKHANKMDVPPAILATNKILVDMAKMRPTTVENVKRIDGVSEGKAAMLAPLLEVIKHFCQTNSVQTDLFSSTKPQEEQKTSLVAKNKICTLSQSMAITYSLFQEKKMPLKSIAESRILPLMTIGMHLSQAVKAGCPLDLERAGLTPEVQKIIADVIRNPPVNSDMSKISLIRMLVPENIDTYLIHMAIEILKHGPDSGLQPSCDVNKRRCFPGSEEICSSSKRSKEEVGINTETSSAERKRRLPVWFAKGSDTSKKLMDKTKRGGLFS

Molecular target: the molecule itself
Experiment: SEC

Protein | stoichiometry N
B1 | 6 and 3
B2 | 3
